Source: US20150239983A1 (University of California, published 2015)

T1: purified PSCA-Fc (human, UniProt O43653 12-83, limits assumed)
T1 construct: not shown: Fc part
T1 sequence: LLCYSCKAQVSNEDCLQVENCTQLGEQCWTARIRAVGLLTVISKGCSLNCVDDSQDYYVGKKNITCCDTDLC

B1: A2 anti-PSCA minibody (other)
chain: DIQLTQSPSSLSASVGDRVTITCSASSSVRFIHWYQQKPGKAPKRLIYDTSKLASGVPSRFSGSGSGTDFTLTISSLQPEDFATYYCQQWGSSPFTFGQGTKVEIKGSTSGGGSGGGSGGGGSEVQLVESGGGLVQPGGSLRLSCAASGFNIKDYYIHWVRQAPGKGLEWVAWIDPEYGDSEFVPKFQGRATMSADTSKNTAYLQMNSLRAEDTAVYYCKTGGFWGRGTLVTVSSEPKSCDKTHTCPPCGGGSSGGGSGGQPREPQVYTLPPSRDELTKNQVSLTCLVKGFYPSDIAVEWESNGQPENNYKTTPPVLDSDGSFFLYSKLTVDKSRWQQGNVFSCSVMHEALHNHYTQKSLSLSPGK
notes: also called A2 minibody; variant A2
B2: A11 anti-PSCA minibody (other)
chain: DIQLTQSPSTLSASMGDRVTITCSASSSVRFIHWYQQKPGKAPKRLIYDTSKLASGVPSRFSGSGSGTDFTLTISSLQPEDFATYYCQQWGSSPFTFGQGTKVEIKGSTSGGGSGGGSGGGGSSEVQLVEYGGGLVQPGGSLRLSCAASGFNIKDYYIHWVRQAPGKGLEWVAWIDPENGDTEFVPKFQGRATMSADTSKNTAYLQMNSLRAEDTAVYYCKTGGFWGQGTLVTVSSEPKSCDKTHTCPPCGGGSSGGGSGGQPREPQVYTLPPSRDELTKNQVSLTCLVKGFYPSDIAVEWESNGQPENNYKTTPPVLDSDGSFFLYSKLTVDKSRWQQGNVFSCSVMHEALHNHYTQKSLSLSPGK
notes: also called A11 minibody; variant A11
B3: C5 anti-PSCA minibody (other)
chain: DIQLIQSPSSLSASVGDRVTITCSASSSVRFIHWYQQKPGKAPKRLIYDTSKLASGVPSRFSGSGSGTDFTLTISSLQPEDFATYYCQQWSSSPFTFGQGTKVEIKGSTSGGGSGGGSGGGGSSEVQLVESGGGLVQPGGSLRLSCAASGFNIKDYYIHWVRQAPGKGLEWVAWIDPENGDTEFVPKFQGRATISADTSKNTVYLQMNSLRAKDTAVYYCKTGGFWGQGTLVTVSSEPKSCDKTHTCPPCGGGSSGGGSGGQPREPQVYTLPPSRDELTKNQVSLTCLVKGFYPSDIAVEWESNGQPENNYKTTPPVLDSDGSFFLYSKLTVDKSRWQQGNVFSCSVMHEALHNHYTQKSLSLSPGK
notes: also called C5 minibody; variant C5

What follows are binders tested against T1, purified PSCA-Fc (assay: competition ELISA, wells coated with purified PSCA-Fc; reference is the parental 2B3 minibody).
Protocol: The ranking of the four minibodies was determined by competition ELISA and flow cytometry (FIG. 5).
Competition ELISA: PSCA relative binding affinity for the minibodies was determined by competition ELISA in which microtiter plate wells were coated with purified PSCA-Fc (Olafsen T, et al. J. Irrununotherapy 2007: 30:396).

Point of comparison: B2, “improvement of relative affinity compared to the parental” value 3 fold. Against it:
- B1 — higher, 4.4 fold
- B3 — lower, 1.9 fold
